Measurements published in the supplement of paper PMC12764529.
± gives the half width of the 95% confidence interval.

Key:
[1] = folding stability dG unfold (combined trypsin and chymotrypsin); higher = more stable
How it was run: (§1)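 Designed mini-proteins with no cysteine and under 80 residues were kept only if AlphaFold2 dimer inter-PAE was above 15. In a PA-tagged cDNA display construct, they were digested with trypsin and chymotrypsin and then sequenced. K50 was inferred by Bayesian fitting of counts, and unfolding free energy was derived per protease or combined against a sequence-predicted unfolded-state K50 and a shared folded-state K50.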

[2] = folding stability dG unfold from trypsin proteolysis; higher = more stable
How it was run: as §1

[3] = folding stability dG unfold from chymotrypsin proteolysis; higher = more stable
How it was run: as §1

Row | Sequence | folding stability dG unfold [1] | folding stability dG unfold [2] | folding stability dG unfold [3]
1 | SAGGKMVIVKIRIKERKVKVEKTKDGKEKKVEVEEKEKEITLIVEGSEEEVKKLAEELEKLGLEVEVISAGG [r13_452_TrROS_Hall] | 2.28 ± 0.14 kcal/mol | 1.2 ± 0.063 kcal/mol | 2.52 ± 0.079 kcal/mol
2 | SAGGKNDVKTKTYEIEKDGGKITIEFEKLPDGKYKATVTYPDGKKETLVFDLGEGKEEEFAKEIAKKKSAGG [r13_296_TrMRF] | 2.48 ± 0.38 kcal/mol | 1.46 ± 0.12 kcal/mol | 3.05 ± 0.067 kcal/mol
3 | SAGGKNITIDDITFQPQRDNGKPRYYMEVKVELPNGNPIPITMPMDRMQNNGMSPKTFAKWIAKWLLSAGGS [r16_625_TrROS] | 1.3 ± 0.12 kcal/mol | 1.04 ± 0.13 kcal/mol | 1.5 ± 0.22 kcal/mol
4 | SAGGKPKEITLVVKVGETVEFPEGAEVTYDKETGTVTIKLPDGRTIRVEVTYNPDTDYLVVKITVEPSAGGS [r16_122_TrROS_Hall] | 2.34 ± 0.13 kcal/mol | 2.07 ± 0.074 kcal/mol | 2.41 ± 0.083 kcal/mol
5 | SAGGKPKIRIKIEIYTPEKKETIELEFDSVEEALEALASLPGVKVEKLPDGTIYIKIPNLIIKIEIEPSAGG [r13_143_TrROS_Hall] | 3.42 ± 0.3 kcal/mol | 3.19 ± 0.2 kcal/mol | 3.57 ± 0.1 kcal/mol
6 | SAGGKPKKTILIPLIVPPGKPESAIKALAEFLEAKGYELERIEPVPVGDRLRLVAIFRKPDGTEIKVGSAGG [r13_421_TrMRF] | 1.78 ± 0.069 kcal/mol | 1.66 ± 0.037 kcal/mol | 1.9 ± 0.11 kcal/mol
7 | SAGGKPKPGQEVEMKMIMLMVTKPGEITIMRMKMEMRVNPDGNVQMDMKMEMVRVPLSKDQAKELLNASAGG [r13_544_TrROS] | 3.69 ± 0.36 kcal/mol | 2.68 ± 0.07 kcal/mol | 4.25 ± 0.24 kcal/mol
8 | SAGGKPLLIKVKVRLKNGKELTITVREGESLEEILARARELLGKPIEVEKIEVIPLPPKKEVKKKEKSAGGS [r8_285_TrROS_Hall] | 2.46 ± 0.093 kcal/mol | 1.48 ± 0.019 kcal/mol | 2.86 ± 0.072 kcal/mol
9 | SAGGKPNEKVKIKIKNKDGSEETIEIKVDEEVKIKIKFNGEEKEITIKKGETLTITLENAEIEVEKVSAGGS [r16_456_TrROS_Hall] | 1.94 ± 0.31 kcal/mol | 1.95 ± 0.16 kcal/mol | 1.83 ± 0.22 kcal/mol
10 | SAGGKPVRILVIAGKGIRPLEIPVDEDKTVEAEFKFGDHTIRIRVSPKEKKIEVEAPSNFKIIILEPSAGGS [r16_761_TrMRF] | 2.98 ± 0.12 kcal/mol | 2.96 ± 0.092 kcal/mol | 3.14 ± 0.042 kcal/mol
11 | SAGGKSIHIADATLEDLVDLIANLPEPVVIHVERPVTFPVLLLENGVVAAVRTETAPATLTLTIPPELSAGG [r13_632_TrMRF] | 0.389 ± 0.05 kcal/mol | 0.408 ± 0.021 kcal/mol | 0.258 ± 0.087 kcal/mol
12 | SAGGKSVHIPGLSFEDLRDLIRNLPEPVTIHIEMPMRYPMYKYENGKPKEWQRQEMPMTSTFKIPPDDSAGG [r13_632_TrROS] | -0.565 ± 0.23 kcal/mol | -1.01 ± 0.47 kcal/mol | -0.522 ± 0.36 kcal/mol
13 | SAGGKTIMIMFTPDNAEEIAETIVDEFGYDVKIEKVQPMPMKDPDGKQKAPYYMIEIEIKVPDPGQPLSAGG [r13_943_TrROS] | 0.505 ± 0.094 kcal/mol | 0.945 ± 0.033 kcal/mol | -0.282 ± 0.22 kcal/mol
14 | SAGGKTITIKVKLENGEEKTIEVKVDEVKIEKKNGKLVITFKDGKKITIPLDKIEDMSEDEIKKLLEKSAGG [r13_925_TrROS_Hall] | 2.97 ± 0.2 kcal/mol | 2.72 ± 0.15 kcal/mol | 3.03 ± 0.18 kcal/mol
15 | SAGGKTITLPNGITITVNEDGTVTVTVTVDGKTLTVTVKVDSLEEALAAILEELRRLLKPPEVTVVKPSAGG [r13_896_TrROS_Hall] | 3.07 ± 0.17 kcal/mol | 2.52 ± 0.097 kcal/mol | 3.43 ± 0.13 kcal/mol
16 | SAGGKTIVIKVKTKEQAKALAEELAKKLKDAGYTVTVTYDEETGVVTVTVTVKVNGKTKKITLVLELPSAGG [r13_641_TrROS_Hall] | 3.26 ± 0.038 kcal/mol | 3.51 ± 0.074 kcal/mol | 3.05 ± 0.043 kcal/mol
17 | SAGGKTIWIFFPPDNPEEFLEELAQLPNVTDVEVWRHNDYYMIEIRLEGLPIEIHYNPEGYYMIEIELSAGG [r13_907_TrROS] | 3.48 ± 0.16 kcal/mol | 2.39 ± 0.14 kcal/mol | 3.71 ± 0.074 kcal/mol
18 | SAGGKTKEIELEILFEPVKVKKKKKNKNGKEEEVEEKEFKPVLVRITLKIENGKITEIKIEVEKLDDLSAGG [r13_935_TrROS_Hall] | 2.93 ± 0.26 kcal/mol | 2.05 ± 0.077 kcal/mol | 3.37 ± 0.11 kcal/mol
19 | SAGGKTLTIEVNGKKYKITVEKNENGELTLTIYEYDKKTKKWKKIKTIKLKNMSLEEVLKLLKKLPPSAGGS [r16_378_TrROS_Hall] | 4.58 ± 0.3 kcal/mol | 4.09 ± 0.2 kcal/mol | 4.91 ± 0.19 kcal/mol
20 | SAGGKTLYVVRITRRVRVDGKLYEVTLTLVAESEEEAEEALRKLAEELEALFPDEIRIEVEKVELPPSAGGS [r16_475_TrROS_Hall] | 5.5 ± 0.25 kcal/mol | 3.93 ± 0.13 kcal/mol | 5.7 ± 0.24 kcal/mol
21 | SAGGKTVEVEFEAPESLSPEEIAAAILAAAPPGYFVKVEEVEVRDRPDGEKVILYKATFYDPDTGDFDSAGG [r13_12_TrMRF] | 2.73 ± 0.048 kcal/mol | 2.72 ± 0.081 kcal/mol | 2.804 ± 0.021 kcal/mol

Row | Sequence | folding stability dG unfold [1] | folding stability dG unfold [2] | folding stability dG unfold [3]
22 | SAGGKTVVIELDGARIEFNEDDGTITVWMPREELEALKAALPPGAEIVEVRERPDGWVQVTIRITPPSAGGS [r8_415_TrROS_Hall] | 3.89 ± 0.1 kcal/mol | 3.1 ± 0.14 kcal/mol | 4.21 ± 0.15 kcal/mol
23 | SAGGKVEVELEDGKLRVKVFDKNGKLVEEVEVELKPVTIVIPGLSEEELQELKEKFPGAKITILEGQKSAGG [r13_235_TrROS_Hall] | 2.39 ± 0.11 kcal/mol | 1.73 ± 0.063 kcal/mol | 2.87 ± 0.08 kcal/mol
24 | SAGGKVKALIIPAPDEPGKPVYLKIIHPDGEIVYPLPNDITEEEAKAAAIELGEENGLDLDEIEIAESAGGS [r16_753_TrMRF] | 0.746 ± 0.099 kcal/mol | 0.537 ± 0.032 kcal/mol | 0.893 ± 0.065 kcal/mol
25 | SAGGKVKIIVFNKKTGEKIEIDLSKLKPGDIIKLPNGYYKIIDKKTKKIKVIKAKSIEELKKAIKKLSSAGG [r13_962_TrROS_Hall] | 2.01 ± 0.33 kcal/mol | 2.07 ± 0.15 kcal/mol | 2.21 ± 0.17 kcal/mol
26 | SAGGKVKVKLSPEMIEALKKAGIKEGQKEVTIEVKLKDGSVYRVTITYDKKTNKITIKVEKVEKLPPSAGGS [r16_497_TrROS_Hall] | 3.88 ± 0.32 kcal/mol | 2.58 ± 0.16 kcal/mol | 4.16 ± 0.1 kcal/mol
27 | SAGGKVKVTVTPDGTVTIEFEAESVEEAIKAAKAFLEEAGFEVESIPVEVPPDGTVKVTAKIKPKNASAGGS [r8_253_TrMRF] | 1.67 ± 0.14 kcal/mol | 1.33 ± 0.06 kcal/mol | 1.79 ± 0.11 kcal/mol
28 | SAGGKVTLIEVEFEGGNPTISLTVTNADGSVEAVFVSPSPTDVLYATATLTVGGHPVVVVARASKDESAGGS [r16_672_TrMRF] | 1.8 ± 0.12 kcal/mol | 1.3 ± 0.094 kcal/mol | 2.11 ± 0.056 kcal/mol
29 | SAGGKVTLRAPVVVPKDKIEDFIDALREALEALGLKEFKDIEIKEIIEGDDYYIIDFEVTAEADLPELASAG [r5_575_TrMRF] | 2.32 ± 0.13 kcal/mol | 2.65 ± 0.12 kcal/mol | 2.21 ± 0.036 kcal/mol
30 | SAGGKVTVENDTLTIPFPDGFTVEITLPPNDKTAVITLHTPPNNPLALAAAKAIADSLPDYKVEVRDESAGG [r13_34_TrMRF] | 0.704 ± 0.07 kcal/mol | 0.662 ± 0.035 kcal/mol | 0.649 ± 0.06 kcal/mol
31 | SAGGKVVTVEVELENGVRVTVEFVEEDGYLALKVTVEVRLPAPPVTTADGREKEVTRRLELVILLPKESAGG [r13_780_TrROS_Hall] | 3.05 ± 0.13 kcal/mol | 2.72 ± 0.14 kcal/mol | 3.17 ± 0.15 kcal/mol
32 | SAGGKVYEFEIEVELLDPETGKPKKIKLKVPVFVDPKTGKVTKKVEAEPEPNVPKEEAEKIAKEIIEAESAG [r14_152_TrMRF] | 1.36 ± 0.31 kcal/mol | -0.04 ± 0.38 kcal/mol | 1.71 ± 0.073 kcal/mol
33 | SAGGKYGYKIEIEIAIFRIPPGAEVEPERIGNIEIYRIRFPDGNWLIMIRIKVKPMPPPPPEKKDNDDSAGG [r13_804_TrROS] | 4.22 ± 0.34 kcal/mol | 3.61 ± 0.22 kcal/mol | 4.7 ± 0.23 kcal/mol
34 | SAGGKYKIEIEITEIKEKEDGTKEITIKIKIYDEETGELIYTITVKMRIDKKTNKIIIEEVKIEKLPPSAGG [r13_596_TrROS_Hall] | > 6 kcal/mol | 4.22 ± 0.29 kcal/mol | 6 ± 0.36 kcal/mol
35 | SAGGKYKIEIVDVEVKEDGTVTIKLKLYNENGELIAEIEIELKGVKEVTLELEIGGKKIKITLKVEKPSAGG [r13_427_TrROS_Hall] | 5.36 ± 0.41 kcal/mol | 4.13 ± 0.36 kcal/mol | 5.3 ± 0.17 kcal/mol
36 | SAGGLAEYIARYLQENDPRARVEAEEGDVLDGVRVIRVRVERVDDAFGGDIPSSADFILVIPAGAPPTSAGG [r19_8_TrMRF] | 1.38 ± 0.089 kcal/mol | 1.36 ± 0.025 kcal/mol | 1.38 ± 0.1 kcal/mol
37 | SAGGLDAVLAELAKKPPGVTVELPVELPDGSRVVLTATWPAETSSPVITVKYYDPNRPEAVEEETFTVTSAG [r5_35_JUSTAS] | 1.46 ± 0.12 kcal/mol | 1.34 ± 0.08 kcal/mol | 1.47 ± 0.049 kcal/mol
38 | SAGGLIEAIKEAIDQAPPGDEEVTIPIRFPNGTFVIEIRREKDKYKIEIEMQNPNGQKQEITITIEVSAGGS [r16_642_TrROS] | 1.65 ± 0.12 kcal/mol | 1.43 ± 0.091 kcal/mol | 1.69 ± 0.089 kcal/mol
39 | SAGGLKELLEALKEGNLEEALEALKKLGIEEVKIEIKPVVRVVITVEVPKEKVKVKVEVRVFLPEEELSAGG [r13_359_TrROS_Hall] | 1.71 ± 0.33 kcal/mol | 1.94 ± 0.13 kcal/mol | 1.24 ± 0.23 kcal/mol
40 | SAGGLKIDEFERSPNQGRYYVTIKIYHPDNGKPWDIEVPFNPDNGRWSAEEIAKTIAKKFKLPPGFTISAGG [r13_362_TrROS] | 2.05 ± 0.062 kcal/mol | 1.814 ± 0.014 kcal/mol | 2.3 ± 0.08 kcal/mol
41 | SAGGLKPGDWVIIMTIEFPFPFPDDDGKPQEWRIKITIWVPVEYDPPDGKLEIDNIFINIEIVPPDQISAGG [r13_312_TrROS] | 4.44 ± 0.18 kcal/mol | 3.52 ± 0.22 kcal/mol | 4.55 ± 0.1 kcal/mol
